Measured values taken from patent US20220259324A1 (MINERVA BIOTECHNOLOGIES, published 2022).
Substitutions are numbered along the chain they refer to.

T1: Human NME7-AB, also known as NME7AB (recombinant, devoid of the DM10 domain) (human, UniProt Q9Y5B8 92-376)
T1 construct: Recombinant, expressed in E. coli, purified over NTA-Ni and by size exclusion; monomer of about 33 kDa; also called NME-AB
T1 sequence: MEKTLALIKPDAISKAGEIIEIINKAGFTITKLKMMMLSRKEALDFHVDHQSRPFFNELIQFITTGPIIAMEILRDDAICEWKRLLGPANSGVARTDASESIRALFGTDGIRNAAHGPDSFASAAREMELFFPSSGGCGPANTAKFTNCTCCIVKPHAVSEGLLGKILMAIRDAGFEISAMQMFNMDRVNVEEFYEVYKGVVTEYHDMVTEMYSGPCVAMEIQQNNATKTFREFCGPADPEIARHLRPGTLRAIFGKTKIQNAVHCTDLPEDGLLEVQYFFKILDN

B1: PSMGFR peptide (MUC1* extra cellular domain peptide) (peptide)
peptide: GTINVHDVETQFNQYKTEAASRYNLTISDVSVSDVPFPFSAQSGA
notes: Synthetic peptide immobilized on ELISA plates; also called MUC1* peptide; FLR
B2: Monoclonal Antibody 8F9A5A1 (antibody, V domains shown)
VH: IQLVQSGPELKKPGETVKISCKASGYTFTNYGMNWVKQAPGKGLKWMGWINTYTGEPTYVDDFKGRFAFSLETSATTAYLQINNLKNEDTSTYFCARLRGIRPGPLAYWGQGTLVTVSA
VL: EILLTQSPAIIAASPGEKVTITCSASSSVSYMNWYQQKPGSSPKIWIYGISNLASGVPARFSGSGSGTSFSFTINSMEAEDVATYYCQQRSSYPPTFGGGTKLEIKR
notes: Mouse monoclonal antibody
B3: Monoclonal antibody 8F9A4A3 (antibody, V domains shown)
VH: VQLQQSGPELVKPGASVKISCKTSGNTFTEYTMHWVKQSHGKSLEWIGGFNPNNGVTNYNQKFKGKATLTVDKSSSTAYMELRSLTSEDSAVYYCARRYYHSLYVFYFDYWGQGTTLTVSS
VL: ETTVTQSPASLSMAIGEKVTIRCITSTDIDDDMNWYQQKPGEPPKLLISEGNTLRPGVPSRFSSSGYGTDFVFTIENMLSEDVADYYCLQSDNLPLTFGSGTKLEIKR
notes: Mouse monoclonal antibody
B4: Monoclonal Antibody 5F3A5D4 (antibody, V domains shown)
VH: B3 VH with E9D, A15T, L103T, Y110S
VL: DIQMTQTTSSLSASLGDRVTISCSASQGISNYLNWFQQKPDGTIKLLIYYTSSLHSGVPSRFSGSGSGTDYSLTISNVEPEDIATYYCQQYSKLPYTFGGGTKLEIKR
notes: Mouse monoclonal antibody

Legend:
[1] = biological target: T1, Human NME7-AB, also known as NME7AB …; experiment: sandwich ELISA, HRP signal (FIG. 1)
Method: The PSMGFR peptide bearing a C-terminal Cysteine (PSMGFR-Cys) was covalently coupled to BSA using Imject Maleimide activated BSA kit (Thermo Fisher). PSMGFR-Cys coupled BSA was diluted to 10 ug/mL in 0.1M carbonate/bicarbonate buffer pH 9.6 and 50 uL was added to each well of a 96 well plate. After overnight incubation at 4° C., the plate was washed twice with PBS-T and a 3% BSA solution was added to block remaining binding site on the well. After 1h at RT the plate was washed twice with PBS-T and NME7, diluted in PBS-T+1% BSA, was added at different concentrations. After 1h at RT the plate was washed 3× with PBS-T and anti-NM23-H7 (B-9, Santa Cruz Biotechnology), diluted in PBS-T+1% BSA, was added at 1/500 dilution. […] After 1h at RT the plate was washed 3× with PBS-T and binding of NME7 was measured at 415 nm using ABTS solution (Pierce). […]
After 1h at RT the plate was washed 3× with PBS-T and His-Tagged PSMGFR peptide (PSMGFR-His) or biotinylated PSMGFR peptide (PSMGFR-biotin), diluted in PBS-T+1% BSA, was added at different concentration. […] After 1h at RT the plate was washed 3× with PBS-T and binding of PSMGFR peptide to NME7 already bound to another PSMGFR peptide (which could not signal by anti-His antibody or by streptavidin) coupled BSA was measured at 415 nm using a ABTS solution (Pierce).

[2] = biological target: T1, Human NME7-AB, also known as NME7AB …; experiment: ELISA, plate coated with recombinant NME7-AB (FIG. 24)

Binder	binding result [1]	binding result [2]
B1	binds	–
B2	–	binds
B3	–	binds
B4	–	binds
